Measured values reported in the RNAGym collection of RNA variant scans (doi:10.7554/elife.80360).

B1: HDV Ribozyme (parent)
chain: GGCCGGCAUGGUCCCAGCCUCCUCGCUGGCGCCGGCUGGGCAACAUUCCGAGGGGACCGUCCCCUCGGUAAUGGCGAAUGGGACCCA

Variants of: B1
Experiment: self-cleavage, relative activity (ratio to wild type); higher = more cleavage; co-transcriptional

In order of rising self-cleavage:
1. A43C A77U  0
2. A42G G73C  0
3. A42G A77U  0
4. A42U G81A  0.0378
5. A42U C75A  0.0405
6. A43C A78U  0.0415
7. A42U G81C  0.0426
8. A43G C75U  0.0573
9. A43U C75G  0.0639
10. G40U G80C  0.0692
11. A42U A77U  0.0739
12. C41G G82A  0.0811
13. A43C G80U  0.0825
14. A42C C75G  0.0852
15. A43C A77C  0.0923
16. A43U A83C  0.0923
17. A42C G81C  0.0978
18. A43G A78G  0.119
19. C41G A83C  0.123
20. A43U A83U  0.125
21. A42C C75U  0.148
22. A43U C84U  0.151
23. A43U U72C  0.155
24. A42U G80A  0.16
25. A43G C75G  0.161
26. C41A G81C  0.169
27. A42U G74C  0.17
28. C41A A77C  0.172
29. A43G C75A  0.172
30. C41U G80U  0.174
31. A42C C85A  0.18
32. G40U U79C  0.185
33. C41U G80C  0.188
34. C41G C44A  0.192
35. A43C G80C  0.194
36. A42U A43G  0.201
37. C41U C75G  0.208
38. A42C C48G  0.229
39. G40U U72G  0.23
40. A42C G55C  0.243
41. G40U U79G  0.243
42. A42C G73A  0.245
43. A43C G68U  0.264
44. C41G A77G  0.268
45. A42G G68C  0.271
46. A42C G54A  0.271
47. A43C C49G  0.287
48. A43U G68U  0.299
49. A43U U65G  0.302
50. A42G C64A  0.302
51. A43C C61A  0.306
52. A42C A45U  0.306
53. C41A A83C  0.312
54. C41U C49G  0.317
55. A43U C86G  0.325
56. C41A A77U  0.332
57. C41G A42G  0.332
58. A42G C64G  0.332
59. A42U G74A  0.343
60. C41G A42C  0.353
61. A43C C61G  0.359
62. C41A G74C  0.366
63. C41U U79G  0.369
64. A42G U46C  0.369
65. A42C C57A  0.373
66. A42U A87G  0.389
67. A43G G76A  0.391
68. A43C C58A  0.394
69. A42C G59C  0.397
70. A43G C66G  0.404
71. A43G C58U  0.415
72. A42U C85A  0.415
73. A43U C48A  0.424
74. A43U A87U  0.425
75. A43C G53U  0.425
76. A43C C61U  0.434
77. A43G U46C  0.443
78. A42G G50A  0.446
79. A43G U72A  0.453
80. A42G C57G  0.453
81. A42U U65G  0.457
82. A43U G50U  0.458
83. A42U A77G  0.464
84. C44A A70C  0.465
85. G40U C62G  0.467
86. A43G C49U  0.469
87. A42G C62G  0.469
88. C41G A70C  0.475
89. A42G G55A  0.485
90. A42U C86A  0.492
91. A43U U69C  0.494
92. A43G U46G  0.499
93. A43U C62A  0.499
94. A43U G59C  0.502
95. A42U U72C  0.508
96. A43C G55A  0.511
97. A42U U72A  0.511
98. G40U G52A  0.513
99. A42U C86G  0.519
100. A42G C48U  0.525
101. A43C U69A  0.532
102. C41G C64G  0.536
103. A42U A45U  0.554
104. A43U A70C  0.554
105. A43C G53A  0.554
106. C41A G73C  0.554
107. A42U U60C  0.554
108. A43U C86U  0.563
109. C41U C49A  0.563
110. C44A A70U  0.571
111. A43U A70U  0.59
112. C41G U69A  0.609
113. G40U C85G  0.612
114. A42U U47G  0.615
115. A43G U69A  0.623
116. C41A A77G  0.628
117. A43C G53C  0.63
118. A43G A87G  0.634
119. A42G C44U  0.639
120. C41U A71C  0.644
121. A43U U46A  0.653
122. A42G C61U  0.656
123. A43G C66U  0.672
124. A42G G55C  0.675
125. C41G C66U  0.683
126. A43G A87C  0.688
127. G40U G54A  0.694
128. C44A A70G  0.703
129. G40U C57U  0.712
130. A43G C86A  0.712
131. C41G G55C  0.723
132. A43G G74A  0.724
133. A43G C86G  0.727
134. A42C G76U  0.734
135. A42U G76U  0.745
136. C41G U69C  0.772
137. A43C C57A  0.785
138. C41G C57G  0.804
139. C41A U69A  0.831
140. A42G C61G  0.831
141. C41A G53C  0.848
142. A43G U69G  0.867
143. C44A A56G  0.875
144. C41U A70G  0.876
145. A43U A45C  0.877
146. G40U G52C  0.891
147. C41A C57U  0.909
148. C41U C62U  0.92
149. C41U C66G  0.926
150. C41G A70G  0.929
151. C41G A56C  0.942
152. C41A U65G  0.95
153. C41U G54A  0.958
154. C41A G53U  0.969
155. C41U U79A  0.98
156. C41U C63A  0.983
157. C41U G55U  1
158. G40U G50U  1.01
159. C41A G54A  1.01
160. C41U C48U  1.02
161. C41U U46G  1.02
162. A43U A70G  1.05
163. C41U A71G  1.06
164. C41A G76C  1.06
165. C41A G54C  1.08
166. C41A G59U  1.11
167. C41U C61A  1.12
